B1: TGF 1-2L.296: engineered meganuclease targeting the TGFBR2 gene (SEQ ID NO: 65) (protein)
chain: MNTKYNKEFLLYLAGFVDGDGSIYACITPKQRSKFKHSLRLRFTVGQKTQRRWFLDKLVDEIGVGYVLDGGGVSEYRLSEIKPLHNFLTQLQPFLKLKQKQANLVLKIIEQLPSAKESPDKFLEVCTWVDQIAALNDSKTRKTTSETVRAVLDSLPGSVGGLSPSQASSATSSASSSPGSGISEALRAGAGSGTGYNKEFLLYLAGFVDGDGSIYACIEPDQSRKFKHTLRLYFEVGQKTQRRWFLDKLVDEIGVGYVYDRGSVSNYRLSEIKPLHNFLTQLQPFLKLKQKQANLVLKIIEQLPSAKESPDKFLEVCTWVDQIAALNDSKTRKTTSETVRAVLDSLSEKKKSSP
B2: TGF 1-2x.5: engineered meganuclease targeting the TGFBR2 gene (SEQ ID NO: 64) (protein)
chain: MNTKYNKEFLLYLAGFVDGDGSIYACIEPDQSRKFKHTLRLYFEVGQKTQRRWFLDKLVDEIGVGYVYDRGSVSNYRLSEIKPLHNFLTQLQPFLKLKQKQANLVLKIIEQLPSAKESPDKFLEVCTWVDQIAALNDSKTRKTTSETVRAVLDSLPGSVGGLSPSQASSAASSASSSPGSGISEALRAGAGSGTGYNKEFLLYLAGFVDGDGSIFACITPSQTHKFKHRLFLRFTVGQKTQRRWFLDKLVDEIGVGYVVDSGSVSEYRLSQIKPLHNFLTQLQPFLKLKQKQANLVLKIIEQLPSAKESPDKFLEVCTWVDQIAALNDSKTRKTTSETVRAVLDSLSEKKKSSP

Experiments:
TGFBR2 = TGFBR2 surface expression (knockdown or knockout) on T cells by flow cytometry; assay type: cell-based, human; conditions: for TGFBR2 knockout frequency, percent of cells in the culture: 6 days after electroporation of nuclease RNA, vs mock nucleofected
Procedure: Nucleofection was carried out in the presence of 2 μg/1×10^6 cells of linearized DNA encoding the CAR and one of the candidate TGFBR2 shRNAmiRs.
Cells were analyzed for TGFBR2 expression at d7, 10, and 14 post-nucleofection using the anti-TGFBR2 antibody MM0056-4F14 (Abcam), and an anti-mouse kappa light chain secondary antibody conjugated to PE (BioLegend). CAR+ cells were identified using anti-FMC63-Alx647, produced in house. The mean fluorescence intensity (MFI) of TGFBR2 signal on the CAR+ was compared to that on the CAR− cells and a percent knockdown was calculated. The frequency of CAR+ events was consistent across the different constructs, ranging from 4.9% to 6.7% (FIG. 12).
Electroporated cells were cultured for 6 days in complete X-VIVO15 medium supplemented with 30 ng/ml IL-2 prior to an analysis of editing efficiency. This was achieved by staining cells with an anti-TGFβRII antibody (Abcam clone MM0056-4F14) followed by anti-mouse IgG κ light chain conjugated to PE (BioLegend clone RMK45). Data were acquired on a Beckman-Coulter CytoFLEX-S or LX.
Mock nucleofected T cells were stained with the anti-TGFβRII antibody and the secondary antibody or the secondary antibody alone to serve as positive and negative controls, respectively, for surface detection of TGFβRII.
A further study was conducted in which the activity of CAR T cells was assessed following various alterations to the TGFβ pathway. […] In some variants, a sequence encoding a shRNAmiR was also introduced at the TRC 1-2 site in the same cassette as the CAR (positioned between the CAR stop codon and a polyA sequence). In one variant, the shRNAmiR was a TGFBR2-specific shRNAmiR (construct 72154) while in another variant a shRNAmiR that is irrelevant to TGFβ function (targeting B2M—construct 72155) was introduced. A third variant of CAR T cells was produced using construct 72155, but they were edited at the TGFBR2 locus using the TGF1-2L296 nuclease described above in order to knockout the TGFBR2 gene. CAR T cells in the TGFBR2 KO group contained 60% KO.

SMAD2/3 = assay: Phosphorylated SMAD2/3 after TGFβ1 stimulation by flow cytometry; assay type: cell-based, human; conditions: BCMA CAR T cells, TGFβ1 500 ng/ml
From the text: T cells electroporated with TRC1-2L.1592 were immediately transduced with AAV72112 (encoding the anti-CD19 FMC63 CAR described in Example 1 and a TGFBR2-specific shRNAmiR inserted after the CAR stop codon and before a polyA sequence) or AAV7206 (encoding a control FMC63 CAR with no RNAi). Following six days of culture, CD3-CAR+ cells were purified by FACS using methods described above. In addition, TGFβRII-cells from TGF1-2L.296-edited cultures were sorted in this manner. Sorted cells were rested in serum free medium overnight before being stimulated with 500 ng/ml of recombinant human TGFβ1, the ligand for TGFBR2 (PeproTech). Thirty minutes following TGFβ1 addition, cells were harvested and immediately prepared for staining using Phos-Flow lyse-fix buffer and Phos-Flow Fix-Perm buffer III (BD Biosciences) according to the manufacturer's instructions. Fixed cells were stained with anti-pSMAD2/3-PE (BD Biosciences) and data were acquired on a Beckman-Coulter CytoFLEX-LX. […]
BCMA CAR T cells having knock out of TGFBR2 were prepared with the TGF 1-2L.296 meganuclease and cells having knock down of TGFBR2 were prepared with the 72112 TGFBR2 shRNAmiR as described above. The respective BCMA CAR T cell groups were treated with TGFβ1 (500 ng/ml) and all cell groups were harvested and analyzed as described above. […]

Molecule | TGFBR2 knockout frequency, percent of cells in the culture (TGFBR2) [%] | TGFBR2 KO in CAR T cell group (TGFBR2; BCMA CAR T cells, construct 72155 plus nuclease) [%] | pSMAD2/3 level after TGFβ1 (SMAD2/3)
B1 | 69 | 60 | decreased pSMAD2/3 to levels comparable to, or lower than, the untreated BCMA CAR T cell control
B2 | 38.6 | – | –

Reference: patent US11851680B2, “Genetically-modified immune cells comprising a microRNA-adapted shRNA (shRNAmiR)” (Precision Biosciences, Inc., priority 2019, dated 2023)
